B1: AMOTL2 peptide 64-79 (Angiomotin-like protein 2), 16-mer library wild type / TNKS ANK (TNKS 12 ANK repeats, residues 174-649) (parent complex)
chain 1: QVLQQATRQEPQGQEH
chain 2: TGVPAVSGALRELLEACRNGDVSRVKRLVDAANVNAKDMAGRKSSPLHFAAGFGRKDVVEHLLQMGANVHARDDGGLIPLHNACSFGHAEVVSLLLCQGADPNARDNWNYTPLHEAAIKGKIDVCIVLLQHGADPNIRNTDGKSALDLADPSAKAVLTGEYKKDELLEAARSGNEEKLMALLTPLNVNCHASDGRKSTPLHLAAGYNRVRIVQLLLQHGADVHAKDKGGLVPLHNACSYGHYEVTELLLKHGACVNAMDLWQFTPLHEAASKNRVEVCSLLLSHGADPTLVNCHGKSAVDMAPTPELRERLTYEFKGHSLLQAAREADLAKVKKTLALEIINFKQPQSHETALHCAVASLHPKRKQVTELLLRKGANVNEKNKDFMTPLHVAAERAHNDVMEVLHKHGAKMNALDTLGQTALHRAALAGHLQTCRLLLSYGSDPSIISLQGFTAAQMGNEAVQQILSESTPIRTSD

Variants of: B1
Assay: proteomic peptide phage display deep mutational scan (ProP-PD DMS): M13 P8 16-mer library selected against immobilised GST-tagged bait for four days (rounds), NGS of the eluted pools per day and pseudo-replica; bait immobilised on MaxiSorp plates (10 µg), library pre-cleared on GST, 2 h binding at 4 °C, five washes; one round per day, days 1-4; value from days 2 and 3
chain 1 QVLQQATRFEPQGQEH [chain 1 Q9F] was tested, and the screen value was 0.000243 average fractional NGS count over selection days 2 and 3 (reads of this peptide / all reads for the bait, averaged over …. chain 1 QVLQQATRHEPQGQEH [chain 1 Q9H] was tested, and the screen value was 0.000266 average fractional NGS count over selection days 2 and 3 (reads of this peptide / all reads for the bait, averaged over …. For chain 1 QVLQQATRLEPQGQEH [chain 1 Q9L], the screen value was 0.000942 average fractional NGS count over selection days 2 and 3 (reads of this peptide / all reads for the bait, averaged over …. In the case of chain 1 QVLQQATRYEPQGQEH [chain 1 Q9Y], the screen value is reported as 0.000466 average fractional NGS count over selection days 2 and 3 (reads of this peptide / all reads for the bait, averaged over …. With chain 1 QVLQQATRDEPQGQEH [chain 1 Q9D] the screen value was 0.00088 average fractional NGS count over selection days 2 and 3 (reads of this peptide / all reads for the bait, averaged over …. In the case of chain 1 QVLQQATRPEPQGQEH [chain 1 Q9P], the screen value is reported as 0.00216 average fractional NGS count over selection days 2 and 3 (reads of this peptide / all reads for the bait, averaged over …. chain 1 QVLQQATRSEPQGQEH [chain 1 Q9S] was tested, and the screen value was 0.000874 average fractional NGS count over selection days 2 and 3 (reads of this peptide / all reads for the bait, averaged over …. For chain 1 QVLQQATRMEPQGQEH [chain 1 Q9M], the screen value was 0.000331 average fractional NGS count over selection days 2 and 3 (reads of this peptide / all reads for the bait, averaged over …. In the case of chain 1 QVLQQATRTEPQGQEH [chain 1 Q9T], the screen value is reported as 0.000851 average fractional NGS count over selection days 2 and 3 (reads of this peptide / all reads for the bait, averaged over …. For chain 1 QVEQQATRQEPQGQEH [chain 1 L3E], the screen value was 0.00384 average fractional NGS count over selection days 2 and 3 (reads of this peptide / all reads for the bait, averaged over …. With chain 1 QVGQQATRQEPQGQEH [chain 1 L3G] the screen value was 0.000399 average fractional NGS count over selection days 2 and 3 (reads of this peptide / all reads for the bait, averaged over …. chain 1 QVYQQATRQEPQGQEH [chain 1 L3Y] was tested, and the screen value was 0.000502 average fractional NGS count over selection days 2 and 3 (reads of this peptide / all reads for the bait, averaged over …. For chain 1 QVNQQATRQEPQGQEH [chain 1 L3N], the screen value was 0.00173 average fractional NGS count over selection days 2 and 3 (reads of this peptide / all reads for the bait, averaged over …. For chain 1 QVHQQATRQEPQGQEH [chain 1 L3H], the screen value was 0.00318 average fractional NGS count over selection days 2 and 3 (reads of this peptide / all reads for the bait, averaged over …. With chain 1 QVSQQATRQEPQGQEH [chain 1 L3S] the screen value was 0.000145 average fractional NGS count over selection days 2 and 3 (reads of this peptide / all reads for the bait, averaged over …. In the case of chain 1 QVRQQATRQEPQGQEH [chain 1 L3R], the screen value is reported as 0.000319 average fractional NGS count over selection days 2 and 3 (reads of this peptide / all reads for the bait, averaged over …. In the case of chain 1 QVVQQATRQEPQGQEH [chain 1 L3V], the screen value is reported as 0.00036 average fractional NGS count over selection days 2 and 3 (reads of this peptide / all reads for the bait, averaged over …. With chain 1 QVLGQATRQEPQGQEH [chain 1 Q4G] the screen value was 0.000278 average fractional NGS count over selection days 2 and 3 (reads of this peptide / all reads for the bait, averaged over …. With chain 1 QVLYQATRQEPQGQEH [chain 1 Q4Y] the screen value was 0.00141 average fractional NGS count over selection days 2 and 3 (reads of this peptide / all reads for the bait, averaged over …. With chain 1 QVLRQATRQEPQGQEH [chain 1 Q4R] the screen value was 0.000203 average fractional NGS count over selection days 2 and 3 (reads of this peptide / all reads for the bait, averaged over …. For chain 1 QVLEQATRQEPQGQEH [chain 1 Q4E], the screen value was 0.000127 average fractional NGS count over selection days 2 and 3 (reads of this peptide / all reads for the bait, averaged over …. With chain 1 QVLWQATRQEPQGQEH [chain 1 Q4W] the screen value was 0.000181 average fractional NGS count over selection days 2 and 3 (reads of this peptide / all reads for the bait, averaged over …. In the case of chain 1 QVLTQATRQEPQGQEH [chain 1 Q4T], the screen value is reported as 0.0012 average fractional NGS count over selection days 2 and 3 (reads of this peptide / all reads for the bait, averaged over …. For chain 1 QVLAQATRQEPQGQEH [chain 1 Q4A], the screen value was 0.00355 average fractional NGS count over selection days 2 and 3 (reads of this peptide / all reads for the bait, averaged over …. For chain 1 QVLMQATRQEPQGQEH [chain 1 Q4M], the screen value was 0.000805 average fractional NGS count over selection days 2 and 3 (reads of this peptide / all reads for the bait, averaged over …. With chain 1 QVLQQATRQLPQGQEH [chain 1 E10L] the screen value was 0.000172 average fractional NGS count over selection days 2 and 3 (reads of this peptide / all reads for the bait, averaged over …. In the case of chain 1 QVLQQATRQPPQGQEH [chain 1 E10P], the screen value is reported as 0.00208 average fractional NGS count over selection days 2 and 3 (reads of this peptide / all reads for the bait, averaged over …. For chain 1 QVLQQATRQIPQGQEH [chain 1 E10I], the screen value was 0.000303 average fractional NGS count over selection days 2 and 3 (reads of this peptide / all reads for the bait, averaged over …. For chain 1 QVLQQATRQNPQGQEH [chain 1 E10N], the screen value was 0.000822 average fractional NGS count over selection days 2 and 3 (reads of this peptide / all reads for the bait, averaged over …. chain 1 QVLQQATRQGPQGQEH [chain 1 E10G] was tested, and the screen value was 0.00177 average fractional NGS count over selection days 2 and 3 (reads of this peptide / all reads for the bait, averaged over …. In the case of chain 1 QVLQQATRQYPQGQEH [chain 1 E10Y], the screen value is reported as 0.00125 average fractional NGS count over selection days 2 and 3 (reads of this peptide / all reads for the bait, averaged over …. chain 1 QVLQQATRQTPQGQEH [chain 1 E10T] was tested, and the screen value was 0.00297 average fractional NGS count over selection days 2 and 3 (reads of this peptide / all reads for the bait, averaged over …. In the case of chain 1 QVLQQATRQKPQGQEH [chain 1 E10K], the screen value is reported as 0.000435 average fractional NGS count over selection days 2 and 3 (reads of this peptide / all reads for the bait, averaged over …. For chain 1 QVLQQATRQSPQGQEH [chain 1 E10S], the screen value was 0.000835 average fractional NGS count over selection days 2 and 3 (reads of this peptide / all reads for the bait, averaged over …. chain 1 QVLQQATRQEPQGQDH [chain 1 E15D] was tested, and the screen value was 0.000568 average fractional NGS count over selection days 2 and 3 (reads of this peptide / all reads for the bait, averaged over …. For chain 1 QVLQQATRQEPQGQIH [chain 1 E15I], the screen value was 9.73e-05 average fractional NGS count over selection days 2 and 3 (reads of this peptide / all reads for the bait, averaged over …. chain 1 QVLQQATRQEPQGQPH [chain 1 E15P] was tested, and the screen value was 0.000133 average fractional NGS count over selection days 2 and 3 (reads of this peptide / all reads for the bait, averaged over …. With chain 1 QVLQQATRQEPQGQWH [chain 1 E15W] the screen value was 0.00103 average fractional NGS count over selection days 2 and 3 (reads of this peptide / all reads for the bait, averaged over …. With chain 1 QVLQQATRQEPQGQHH [chain 1 E15H] the screen value was 0.000392 average fractional NGS count over selection days 2 and 3 (reads of this peptide / all reads for the bait, averaged over …. In the case of chain 1 QVLQQATRQEPQGQEA [chain 1 H16A], the screen value is reported as 0.00111 average fractional NGS count over selection days 2 and 3 (reads of this peptide / all reads for the bait, averaged over …. With chain 1 QVLQQATRQEPQGQER [chain 1 H16R] the screen value was 0.00349 average fractional NGS count over selection days 2 and 3 (reads of this peptide / all reads for the bait, averaged over …. For chain 1 QVLQQATRQEPQGQEM [chain 1 H16M], the screen value was 0.0005 average fractional NGS count over selection days 2 and 3 (reads of this peptide / all reads for the bait, averaged over …. In the case of chain 1 QVLQQATRQEPQGQEY [chain 1 H16Y], the screen value is reported as 0.00033 average fractional NGS count over selection days 2 and 3 (reads of this peptide / all reads for the bait, averaged over …. In the case of chain 1 QVLQQATRQEPQGQEN [chain 1 H16N], the screen value is reported as 0.00139 average fractional NGS count over selection days 2 and 3 (reads of this peptide / all reads for the bait, averaged over …. With chain 1 QVLQQATRQEPQGQEI [chain 1 H16I] the screen value was 0.000704 average fractional NGS count over selection days 2 and 3 (reads of this peptide / all reads for the bait, averaged over …. For chain 1 QVLQQATRQEPQGQEQ [chain 1 H16Q], the screen value was 0.000195 average fractional NGS count over selection days 2 and 3 (reads of this peptide / all reads for the bait, averaged over …. With chain 1 QVLQQATRQEPQVQEH [chain 1 G13V] the screen value was 0.00137 average fractional NGS count over selection days 2 and 3 (reads of this peptide / all reads for the bait, averaged over …. With chain 1 QVLQQATRQEPFGQEH [chain 1 Q12F] the screen value was 0.00125 average fractional NGS count over selection days 2 and 3 (reads of this peptide / all reads for the bait, averaged over …. With chain 1 QVLQQATRQEPAGQEH [chain 1 Q12A] the screen value was 0.00119 average fractional NGS count over selection days 2 and 3 (reads of this peptide / all reads for the bait, averaged over …. chain 1 QVLQQATRQEPHGQEH [chain 1 Q12H] was tested, and the screen value was 0.000111 average fractional NGS count over selection days 2 and 3 (reads of this peptide / all reads for the bait, averaged over …. chain 1 QVLQQATRQEPPGQEH [chain 1 Q12P] was tested, and the screen value was 0.000174 average fractional NGS count over selection days 2 and 3 (reads of this peptide / all reads for the bait, averaged over …. With chain 1 QVLQQATRQEPWGQEH [chain 1 Q12W] the screen value was 0.000556 average fractional NGS count over selection days 2 and 3 (reads of this peptide / all reads for the bait, averaged over …. For chain 1 QVLQQATRQEAQGQEH [chain 1 P11A], the screen value was 0.000173 average fractional NGS count over selection days 2 and 3 (reads of this peptide / all reads for the bait, averaged over …. In the case of chain 1 QVLQQATRQETQGQEH [chain 1 P11T], the screen value is reported as 0.00762 average fractional NGS count over selection days 2 and 3 (reads of this peptide / all reads for the bait, averaged over …. With chain 1 QVLQQATRQEVQGQEH [chain 1 P11V] the screen value was 0.000173 average fractional NGS count over selection days 2 and 3 (reads of this peptide / all reads for the bait, averaged over …. With chain 1 QVLQQAFRQEPQGQEH [chain 1 T7F] the screen value was 0.000844 average fractional NGS count over selection days 2 and 3 (reads of this peptide / all reads for the bait, averaged over …. With chain 1 QVLQQAQRQEPQGQEH [chain 1 T7Q] the screen value was 0.000226 average fractional NGS count over selection days 2 and 3 (reads of this peptide / all reads for the bait, averaged over …. chain 1 QVLQQAVRQEPQGQEH [chain 1 T7V] was tested, and the screen value was 0.00296 average fractional NGS count over selection days 2 and 3 (reads of this peptide / all reads for the bait, averaged over …. With chain 1 QVLQQASRQEPQGQEH [chain 1 T7S] the screen value was 0.000189 average fractional NGS count over selection days 2 and 3 (reads of this peptide / all reads for the bait, averaged over …. For chain 1 QVLQQATRQEPQGAEH [chain 1 Q14A], the screen value was 0.0303 average fractional NGS count over selection days 2 and 3 (reads of this peptide / all reads for the bait, averaged over ….

From PMC12102759 (2025)
